Publication PMC4267659 (Nucleic Acids Research, 2014)
Numbering of substitutions follows the chain as printed. Names may count otherwise.

Experiments:
Test in all cases: native gel or EMSA
[1] = biological target: T1, P. horikoshii aEF1α A360S mutant (Pyrococcus horikoshii, UniProt O59153 1-428, A360S)
T1 sequence: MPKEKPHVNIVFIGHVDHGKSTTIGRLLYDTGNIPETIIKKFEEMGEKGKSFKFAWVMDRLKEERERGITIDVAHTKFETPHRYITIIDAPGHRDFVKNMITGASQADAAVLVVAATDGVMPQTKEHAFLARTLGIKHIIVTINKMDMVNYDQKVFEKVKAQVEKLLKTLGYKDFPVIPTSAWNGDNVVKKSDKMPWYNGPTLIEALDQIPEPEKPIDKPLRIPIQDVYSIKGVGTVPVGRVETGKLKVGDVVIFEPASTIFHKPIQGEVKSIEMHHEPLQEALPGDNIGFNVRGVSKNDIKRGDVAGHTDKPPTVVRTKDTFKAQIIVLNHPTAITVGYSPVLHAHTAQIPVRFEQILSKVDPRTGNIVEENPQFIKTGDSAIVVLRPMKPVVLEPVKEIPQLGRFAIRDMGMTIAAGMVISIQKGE

[2] = biological target: T2, P. horikoshii aEF1α L166S mutant (Pyrococcus horikoshii, UniProt O59153 1-428, L166S)
T2 sequence: T1 sequence with L166S, S360A

[3] = biological target: T3, P. horikoshii aEF1α L359S mutant (Pyrococcus horikoshii, UniProt O59153 1-428, L359S)
T3 sequence: T1 sequence with L359S, S360A

[4] = biological target: T4, P. horikoshii aEF1α K125L mutant (Pyrococcus horikoshii, UniProt O59153 1-428, K125L)
T4 sequence: T1 sequence with K125L, S360A

[5] = biological target: T5, P. horikoshii aEF1α S423L mutant (Pyrococcus horikoshii, UniProt O59153 1-428, S423L)
T5 sequence: T1 sequence with S360A, S423L

[6] = biological target: T6, P. horikoshii aEF1α R132L mutant (Pyrococcus horikoshii, UniProt O59153 1-428, R132L)
T6 sequence: T1 sequence with R132L, S360A

[7] = biological target: T7, Pyrococcus horikoshii elongation factor aEF1α, wild type (Pyrococcus horikoshii, UniProt O59153 1-428)
T7 sequence: T1 sequence with S360A

Measured: binding result

B1: Pyrococcus horikoshii ribosomal stalk protein aP1, wild type (natural protein, UniProt O57705 1-108, looked up)
chain: MEYVYAALLLHSVGKEINEENLKAVLQAAGVEPEEARIKALVAALEGVNIDEVIEKAAMPVAVAAAPAAAPAEAGGEEKKEEEKKEEEEKEEEVSEEEALAGLSALFG
not listed: [7]
binds: all other assays above

B2: P. horikoshii aP1 L100S mutant (natural protein, Pyrococcus horikoshii, UniProt O57705 1-108, looked up)
chain: B1 chain with L100S
binds: [7]
